A protein production outcome set (Wang et al. 2014)

Assay: label from the status in PepcDB records
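Note: failed if final PepcDB status was selected cloned or expressed and not failed if soluble or beyond.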

| Sequence | protein production |
| --- | --- |
| MANGPGCACPRCGAPRASGPECPRCGVIYAKARARAAPSPAPSGPGTSLPDPGAAGLALGMPARARWSGELDGARRELWIRAVAPPAALLLALALVSSGPGHALLRTFLSMWIHELGHAVTAWLCGHGAFPGPWRTPISSGRLPLVVIAVSGALAALAWRGWRSGRRAILAAGAAGLGVQLVCTLLPATTARALITFGGDAGCMVIGAALVATIWADPEGPLGRGSLRWGFLVIGAAALVDALHGWVRAWRDPGELPLGEIEGVGLSDASTLMQVHRWSASALSGRYVALGLACLAALGATYAVMLARARGAVAAERRAA | failed |
| MTPTPSFAAYVGAHWAAVVIYVIATVVNVYGLLFRSEPAERWSYRLISVGWMIHSVVIAYWWWVTGHGPYLSRNEVLSSDAWIALTVFMCFQRLYPRVRPASIVVFPSVFLMIALGLFFDVQIRTLPPTFSGIWLVIHIAFYKIALGTILIALACSIFLVLKKRTPFAWLQRLPDLESLDLHAYRFAGFGFIIWAIAMLAGSIWAYKSWGRFWGWDPVENWSLITWILFGIHLHLRRFFRWSGERAALFYVVCFIFSLVALFYTSHMDTSIHMEYFR | failed |
| MEKILDLLMSFVKEDEGKLDLASFPLRNTTAGAHLLLKTENVVASGIEVSRMFLEKMGLLSKFNVEDGEYLEGTGVIGEIEGNTYKLLVAERTLLNVLSVMFSVATTTRRFAEKLKHAKIAATRKILPGLGVLQKIAVVHGGGDPHRLDLSGCVMIKDNHLKMYGSAERAVQEVRKIIPFTTKIEVEVENLEDALRAVEAGADIVMLDNLSPEEVKDISRRIKDINPNVIVEVSGGITEENVSLYDFETVDVISSSRLTLQEVFVDLSLEIQR | not failed |
| MMANHLVKPDNRNCKRPRELESPVPDSPQLSSLGKSDSSFSEISGLFYKDEALEKDLNDVSKEINLMLSTYAKLLSERAAVDASYIDEIDELFKEANAIENFLIQKREFLRQRFTVIANTLHR | failed |
| MPEILINYKTNREDYKRQSKYCNICMRRYKSVKKNVIILALMIVFVFVFGTVAFHLIEGWNLFDSFFFTLITVSTVGYSIPENLSQAGKVIASILISAGVTIVLYGFTSVTSMIVEGHIGEYFKSRRMRKMIDRLKDHFIVVGAGRTGRHTTLEIMKAKKPFVVIDQSEEAIARLKDFLGEEFPYVVGDATEEEILMKAGVERARSLVVTLPDDAKSTFVVLTAKSLNPNLEIVSRVSDMKALSKLVYAGADKVIATSELAGVRLAQMALNPTTISFLDILSFGEESFRIEEVVIPPESPVANKTLGEINLAKRAGTIVIAIRRGGEVIFNPTGDTKILPEDRLMVVGKSDHFEKLHRLIEEG | failed |
| MYKLDLPTLMDAFHKVFHVSMLRKCITHQENVISEPPPDLLENMMIVGMLIPNLLGVSSEMVGR | failed |
| HFPARVKVEPAVDTSRIKVFGPGIEGKDVFREATTDFTVDSRPLTQVGGDHIKAHIANPSGASTECFVTDNADGTYQVEYTPFEKGLHVVEVTYDDVPIPNSPFKVAVTEGCQPS | not failed |
| AIASEVSCKKRDDYLEWPEYFMAVAFLSAQRSKDPNSQVGACIVNSENKIVGIGYNGMPNGCSDDVLPWRRTAENKLDTKYPYVCHAELNAIMNKNLTDVKGCSMYVALFPCNECAKLIIQAGIKEVIFMSDKYHDSDEATAARLLFNMAGVTFRKFIPKCSKIVIDFDSINSRPSQKLQ | failed |
| MAMKIPKSGYNRFMKEGAQHFKGTDEAVQRNIEACTELASQIRSAYGPNGMNKMVINHIEKLFVTNDAATILKELEIQHPAARIIIMATEMQEKQIGDNTNTVVILAAALLEHAANLIHMGMTPQEVAAGYEQAAEKALEILPTLVVKEATDMKNIEEVRQYIRSAITSKQYDNEDIIADLVAKACVTTCPANSFNFNVDNIRICKIIGSGVHTSTVMNGMVFKRGAEGEIREARDARIAVYTCPFDLTQTETKGTVLIENADELRNFSKGEEAEVEEQVKAIADNARSSILAKFWLMNFSKGEEAEVEEQQVKAIADNGVKVVVAAGKFGDMYLHFLNKYKIMAVRLTSKFDLRRLCRTVGAQPQARICAPAVNLLGHCDSVAVQEIGDENVVVFDKKSETGKVATIIIRGSSQSRIDDVERAVDDAVNTYKALTKDGKLLAGAGAVEIELAKEIESFGAKAPGLEQYAIKKFAHALETLPKAIAENAGMPTTETLTKLYAEHVAGKKNAGIDIWKRETMDAVVNNIFDLYAGKRLAIKLATDAASTILKVDQIIMSKQATGGPKPRGPKAQDEDDDGMA | failed |
| QRRLSIFVDGNNMFYAQQKNNWFFDPRRVLDYFTCDPTVRLINAFWYTGLKDSQDQRGFRDALISLGYTVRTKILKEYYDDVSGRYSQKANLDIEIVVDMFNTVDQYDQVILFSGDGDFERAIELLRSKNTHITVVSTEGMIARELRNATDCYIDLNNLRAEIEKT | failed |
| PSLPGIEAAARYLPATQGMEIGGDFYDLVATVGRAAAVIGDVQGHNVTAAGLMGQIRTAVRAYTTVGQAPGQVMRSTNRLMIDLGTDLFASCVYLRLDPARQRVVMARAGHPPPLLRKPDGQVRVLDLAGGPLLGIDADATYTTTEFALAPGSVLALYTDGLIESPGIDIEDALAELGERLAESGDEPLDELADRLVRHTATAEERLDDIALLLLRARA | failed |
| MNQEVRFSRLEPEQRKALLIEATLACLKRHGFQGASVRKICAEAGVSVGLINHHYDGKDALVAEAYLAVTGRVMRLLRGAIDTAPGGARPRLSAFFEASFSAELLDPQLLDAWLAFWGAVGSIEAIGRVHDHSYGEYRALLVGVLRQLAEEGGWADFDAELAAISLSALLDGLWLESGLNPATFTPRQGVQICEAWVDGLEAGAHRRFRRAMEAC | not failed |
| MDKRIDLTEGKITSNLIKLSIPIMATSFIQMAYNMADMIWVGRIGSNAVAAVGTAGFFPWLGMAFVMISKVGAEIKVAQSLGRNDIDSTKDYIKSAFQINIILAIIYSIILLLFNSQLIGFFDLGDAEVIKMAKTYLIAVALGMIFNFLNPVFTAVFTGSGDSRIPFIANTIGLIFNIVFDPILIFGIGIFPEMGVLGAALATVLAQVIVTVTFLYIMIKSKAEYLKINILSGIKINCMKTLFHIGLPAALQSGLFTVFSMFIGKIVAVFGPVPIAVQKVGSQVEAIAWMTAGGISTALSTFVGQNYGAGKLKRIVKGFNITMIISLIVGVFASLVLIFFGEEIFRIFIPEAQAIEQGTVYLKILGYCQILVCVEITTTGAFNGLGRTYIPSIISILLTGARIPMAYIMCKPEFLGLEGIWWAISITGALKGVVVYAIYRYLYKKNKLFKVYKDENGEECISI | failed |
| MPEITESERAYHLRKMKTRMQRVDVTGDGFISREDYELIAVRIAKIAKLSAEKAEETRQEFLRVADQLGLAPGVRISVEEAAVNATDSLLKMKGEEKAMAVIQSLIMYDCIDTDKDGYVSLPEFKAFLQAVGPDLTDDKAITCFNTLDFNKNGQISRDEFLVTVNDFLFGLEETALANAFYGDLVD | not failed |
| MASADKLINTDVPEKDVFAFHFLQSLSNLRKQNPFDTPDQKNYRVRKIKKAAYVSMARAAGGSSRLWSRALLRRADKDDNKIVRFSRRKWKISSKRRRSNQRAPVVEEAAERLRNLVPGGGGMETSKLMEETAHYIKCLSMQVKVMQCLVDGLSPK | failed |
| MANATFSADKLKQLTLQITKLARVAGDFQINELKNFERSNIEHKGRSNDLVSYVDKETEKLLIESLTKLVPEAGFETEEGTVEQTQSGLRWIIDPLDGTTNFLHKLPLFSISIALVQDETLLIGVVHEPSRNECFYAWKNGGAYMNGERIETSSITEISDALIATGFPYSLRGKSDQYFTLIRHFVETTHGVRRLGSAAIDLCYVACGRFEAYFEFNLKPWDVAAGILIVREAGGIVSNYSGGDDHCQTAEEVCAAGRHIHPLMIDTFKKIW | failed |
| MLNPSLDIISLMAYLTSSSLVGLKLLNFSINLFISSSFLTFLKSLKCSLILPISMPANSGILFTAVSFMLARSLAMSSFGVFSSIINLFTTIHLPYLAVKLI | failed |
| MTLTPEAEIALFLRRLKWAAVIVGVLWVVSLLAPILTPFVLALLLAWLGDPLVDRIERAGRSRNVAVVLVFVLATLLFVLALMILVPMIERQIMTLIDALPQMRNWAIGTAIPWLEAKTGMQLMAWLDPERLIDWIRSHWEQAGGAAKTLFGYVSRSGFAMVTWVINLALLPILAFYFLRDWDRLVERVAAVIPRAYIGTASRLAQESNDVLGGFIRGQFLVMLALGAIYATGMSIIGLNLGLLIGIIAGLISFIPYLGATTGIVLALLAAIVQAQGLDLKLLIGVGVVFTVGQLLESYVLTPRIVGDKIGLHPVAVIFAVMAGGQLFGFLGMLLALPVAAVANVLLRYAHEQYTRSDLYAGERAGIVLRSTPERSVIIDPSKDADRL | failed |
| MTTQKLLSDCQFCSVVSKNNGEDPIGTANTSDNWLVLEAALPWTEEHLHSDRILSQIHDLFHELENRHIPVIPIAIAPDREYSVPGYVRALHYKRPTKSFAEFEKQEFLIPESQIGQFTSGFLEYPNDLDQFQTYQQPKNHIREIMVCTHGNVDVACSRFGYPIYQNLRQNYAAKSAGQLRVWRCSHIGGHQFAPTLFDLPTGQFWGHIEPEILDVLVWRNSPVKQLRQFYRGWSGMTKFEQIVEREIWMQHGWEWLQYQKSGQVLAKDTTNDEWNADWAEVRIDFTSPDNSIQGSYLARVEACSQVMTVFNSGKEQPLETVKQYRVSQLTQQLINI | failed |
| LGVVPEVRDWFTLGDHRFLVMDFLEGRPLNSFFAERHPLLTPDPEPDAVAAYTAWALRIHRAVEQAVHAVHARGIVFNDLHVFNIMVAPDEESVSLLDFEAAAPIEEN | failed |
| MSRVPEPSVFLVVDEAKRKARERGVGLIDLSIGSTDLPPPEAPLKALAEALNDPTTYGYCLKSCTLPFLEEAARWYEGRYGVGLDPRREALALIGSQEGLAHLLLALTEPEDLLLLPEVAYPSYFGAARVASLRTFLIPLREDGLADLKAVPEGVWREAKVLLLNYPNNPTGAVADWGYFEEALGLARKHGLWLIHDNPYVDQVYEGEAPSPLALPGAKERVVELFSLSKSYNLAGFRLGFALGSEEALARLERVKGVIDFNQYAGVLRMGVEALKTPKEVVRGYARVYRERALGMAEALKGVLSLLPPRATMYLWGRLPEGVDDLEFGLRLVERGVALAPGRGFGPGGKGFVRIALVRPLEELLEAAKRIREALD | not failed |
| METGTHVRDVIFPGGNAAPDAGSVVAAIHQLPTLRLLSLDAHGRVLDWINWQDAACLYARDAVSWTLGEPCMQIHGGISRLTGERSTLELHPIIAARGHARSRALDPTPTLSNTALFARDAQLCMYCGQHFSRPHLTRDHVMPVSKGGRDSWENVVTACFQCNSRKANRTPQQAHMPLLAVPYRPSWIEHLILSNRNILSDQMAFLRAQLPKRSKLSLQAGAPRVADPG | failed |
| PSMPASPVLTKAGITWLSLQWSKPSGTPSDEGISYILEMEEETSGYGFKPKYDGEDLAYTVKNLRRSTKYKFKVIAYNSEGKSNPSEVVEFTTCPD | not failed |
| MSKKTDVVKEYTRIDSKRGLSITTGANRMKLFDRRVLELGRGEYGKLWNVIILGLLISFSYIVQGLLIAVILNGVFAGTPLHESRLYFAAVALLIVLRWIMIRENDRIAARTASNIAMSLRRRMYHKLYELGPGWIMTQKSGVIQATLVDGAEALQNYYGRFLPQVVVSIAAGISIVAILFYVDMTIGLVIGGMMIAALIQPLAIYKGVGKGIRIWFVAMPRLFAEYVDNIQGIVTLKSFNASQRQGKILYQRTNDLYDAEIGILRDEILWSVPPGLVAAICGTVAIIIGAIRMDAGALSAAGLLFVLLLVREALRPVTDLRQTIHFSFSGMGAAEGVLDILEATPLAAVTARPTPSSIPHSFAFEDVTFRYRKTDASAVENLSFKVEPGDKVALVGRSGSGKTTVTSLLMRYFDPQAGIIRLGGEDIRHIPADELHAMYSIVSQDTFLFHGTVRDNLLMAKPEASQEELERAARAAAAHKFIATLPDSYDTLIGERGVRLSGGERQRIAIARAILKDAPILILDEATSSVDVANETLIREAIAGLAHDRTTLLISHRLSAVRDADRIYVLEKGRLMEAGTHSKLVGCNGNYSALVRAEEECI | failed |
